6 molecules from paper PMC9757060 (Nucleic Acids Research, 2022) can be followed below.

What all share (experiment): ITC
Assay [1] concerns the target mouse UHRF1 PHD finger (residues 304–372) (mouse) (UniProt Q8VDF2).
Assay [2] concerns the target T1, mouse UHRF1 PHD finger (residues 304–372) (mouse, UniProt Q8VDF2 304-372).
T1 sequence (looked up): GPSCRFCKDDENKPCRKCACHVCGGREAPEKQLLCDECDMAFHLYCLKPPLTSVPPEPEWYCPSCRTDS

Assay [3] has as its target T2, mouse UHRF1 PHD finger (residues 304–372) L337A (mouse, UniProt Q8VDF2 304-372, L337A).
T2 sequence (looked up): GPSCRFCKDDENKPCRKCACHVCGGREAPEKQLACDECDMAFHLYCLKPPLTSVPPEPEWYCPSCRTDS

Turning to “N-terminal tail of PAF15 (PCNA-associated factor 15) (peptide)”, the Kd in assay [1] amounted to 3520 nM.

B1: mDPPA3 residues 85–118 (peptide, UniProt Q8QZY3 85-118, looked up)
chain: KRRVRTLLSVLKDPIAKMRRLVRIEQRQKRLEGN
B1 had a Kd in assay [2] of 45 nM.

B2: mDPPA3 residues 76–127 followed by an additional Trp (mDPPA3 76–128W) (domain or fragment, mouse)
chain: RREVQSAFPKRRVRTLLSVLKDPIAKMRRLVRIEQRQKRLEGNEFERDSEPFW
For the molecule B2, the results for the Kd in assay [2] and in assay [3] were 27.7 nM and over 43000 nM, respectively.

B3: mDPPA3 76–128W R104A (domain or fragment, mouse)
chain: RREVQSAFPKRRVRTLLSVLKDPIAKMRALVRIEQRQKRLEGNEFERDSEPFW
For B3, the binding result in assay [2] is reported as “binds”.

B4: mDPPA3 76–128W L91A/V94A (domain or fragment, mouse)
chain: RREVQSAFPKRRVRTALSALKDPIAKMRRLVRIEQRQKRLEGNEFERDSEPFW
For B4, binding in assay [2] was put at a Kd of 1080 nM.

B5: mDPPA3 76–128W R89A (domain or fragment, mouse)
chain: RREVQSAFPKRRVATLLSVLKDPIAKMRRLVRIEQRQKRLEGNEFERDSEPFW
With B5, the affinity in assay [2], expressed as Kd, was 361 nM.
